Two substances from patent publication US20050049402A1 can be followed below.

The target in test [1] is monkey (cynomolgous macaque) GST-TNFα (cynomolgous macaque) (UniProt P79337). Description: ELISA, plate coated with 2 µg/ml monkey (cynomolgus macaque) GST-TNFα, HRP goat anti-human IgG detection.
The target in test [2] is human TNFα (Tumor Necrosis Factor-alpha), soluble (human) (UniProt P01375). In words: cell-based or functional assay.
For test [3], the target named is transmembrane mutant TNFα expressed on the surface of CHO cells (UniProt P01375). In words: cell-based or functional assay.

What is called EC50 (read off the curve) is the concentration needed to bring the measured effect to its halfway point.

Sequence of human TNFα (Tumor Necrosis Factor-alpha), soluble (human) (P01375 77-233): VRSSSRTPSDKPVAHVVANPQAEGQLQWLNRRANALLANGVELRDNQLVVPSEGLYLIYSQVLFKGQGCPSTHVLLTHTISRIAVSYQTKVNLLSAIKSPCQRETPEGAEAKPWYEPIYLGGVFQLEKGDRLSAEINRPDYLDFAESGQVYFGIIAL
Sequence of transmembrane mutant TNFα expressed on the surface of CHO cells (P01375 whole entry, change not shown, form in doubt): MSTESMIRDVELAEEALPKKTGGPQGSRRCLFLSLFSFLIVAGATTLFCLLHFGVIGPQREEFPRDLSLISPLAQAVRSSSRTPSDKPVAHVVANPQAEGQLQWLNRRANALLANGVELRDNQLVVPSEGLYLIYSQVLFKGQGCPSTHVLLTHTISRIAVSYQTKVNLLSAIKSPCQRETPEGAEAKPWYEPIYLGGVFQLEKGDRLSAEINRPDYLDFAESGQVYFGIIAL
Sequence of monkey (cynomolgous macaque) GST-TNFα (cynomolgous macaque) (P79337 77-233): as the sequence (P01375 77-233) above, with L37V, R44T, T72N, R138L counted along it

Take Etanercept (Fc fusion): the EC50 (read off the curve) in test [1] was 3 ng/mL. In test [2], this substance showed an IC50 1 hr Pre-incubation, TNF induced apoptosis in MCF-7 cells of 3.4 pM; an IC50 18 hr Pre-incubation, TNF induced apoptosis in MCF-7 cells of 2.2 pM; an In vivo Potency (IC50), ALT, hTNFα/D-GalN hepatic injury in mice of 27 nM; an In vivo Potency (IC50), human TNFα-induced IL-6 in mice of 27 nM.

On to irrelevant human IgG1 control antibody, for which, in test [3], the ADCC (%) turned out to be 2% and the CDC (%) amounted to 2%.
